Data reported in paper PMC9908020, “Structural basis of the transcription termination factor Rho engagement with transcribing RNA polymerase from Thermus thermophilus” (Science Advances, 2023).

B1: Thermus thermophilus RNA polymerase ω subunit (natural protein)
chain: MAEPGIDKLFGMVDSKYRLTVVVAKRAQQLLRHGFKNTVLEPEERPKMQTLEGLFDDPNAVTWAMKELLTGRLVFGENLVPEDRLQKEMERLYPVEREE
notes: RNA polymerase ω subunit, Thermus thermophilus; It stood in the assay as a subunit of the RNAP complex m2; It was cloned in pET-47b, which may add a cleavable N-terminal His tag (surmise); source: E. coli Rosetta2 (DE3), coexpressed and purified as part of RNAP
B2: Thermus thermophilus transcription termination factor Rho (enzyme)
chain: MRRKETLQETPLTYQELASKILPELHLLAQEAGIEGYKRMKKDQLIMALLERQTQGEGLRLVKGYLEISQDGYGFLTENLHNLESRVAIVSAGLIKQYALRAGDYVVGQARPPRENERYATLLKVEAVNNLDPEAAKNRPRFDELTPQFPDRQIRLETTPDELSTRVIDLLAPIGRGQRGLIVAPPKAGKTTLLKKIANAVLKNEPDIKVIVLLIDERPEEVTDFRESVQGAEVIASTFDEPPQNHIRVAEFVHERAKRIVEEGGHVMILLDSITRLARANNLVTPPTGRTLSGGLDSAALYFPKRFLGAARNIRGGGSLTILATALVETGSRMDDVIFEEFKGTGNMELHLSRRLEERRIFPAIDILKSGTRREELLLGEEVTHKMWLLRKVLADMDPAEAMEMLLARLARTKNNKEFLASLAAR
notes: Transcription termination factor Rho, Thermus thermophilus; the C terminus is printed as Arg426; the model leaves out 59 residues at the N terminus; Closed-ring homo-hexamer with ADP·BeF3 at the protomer interfaces; RNA is threaded through the central channel in the RNAP complexes; also called wild-type Rho; Rho hexamer; not shown: His tag, N-terminal, cleaved

Key:
T. thermophilus Rho = target: T1, T. thermophilus Rho (Thermus thermophilus, UniProt Q5SJE9); assay: Rho-dependent RNA release from immobilised RNAP elongation complex, urea-PAGE; format: biochemical; conditions: 1 mM ATP, 200 nM Rho, 10 mM MgCl2, pH 7.5, 65 °C; with T. thermophilus RNAP elongation complex
T1 construct: full-length (C terminus Arg426), N-terminal His-tag cleaved by HRV 3C; pET-47b in E. coli Rosetta2 (DE3); closed-ring homohexamer; model lacks 59 N-terminal residues

[1] = target: B2; assay: cryo-EM structure; type 1 class: EC (RNAP with template DNA and 125-nt nascent RNA, gel filtered) mixed with Rho and 0.5 mM ADP·BeF3 in buffer C (20 mM Hepes-NaOH pH 7.5, 250 mM KCl, 5 mM MgCl2, 1% glycerol), cross-linked with 3 mM BS3; nascent RNA threaded into the Rho ring; conditions: both partners purified
[2] = target: T2, Thermus thermophilus RNA polymerase lacking the β-flap tip helix (Thermus thermophilus, UniProt Q5SHR6 1-315; Q8RQE9 1-761; Q8RQE9 783-1119; Q8RQE8 1-1524; Q8RQE7 1-99); assay: cryo-EM structure; EC-Rho complex prepared with the β-flap tip-deleted RNAP; 2D class averages of ~3000 particles of the RNAP-Rho complex; conditions: both partners purified
T2 construct: RNA polymerase α subunit, Thermus thermophilus; RNA polymerase β subunit, Thermus thermophilus, up to the residue before the deleted β-flap tip helix (β762 to β782 removed); three alanine residues that fill the gap; RNA polymerase β subunit, Thermus thermophilus, from the residue after the deleted β-flap tip helix; RNA polymerase β′ subunit, Thermus thermophilus; RNA polymerase ω subunit, Thermus …

[3] = target: the molecule itself; assay: cryo-EM structure; Rho-only class of the same sample: closed-ring hexamer with ADP·BeF3 between the protomers; C6 symmetry
[4] = target: T3, Thermus thermophilus RNA polymerase β′ subunit (Thermus thermophilus, UniProt Q8RQE8 1-1524); assay: cryo-EM structure; type 1 class: EC (RNAP with template DNA and 125-nt nascent RNA, gel filtered) mixed with Rho and 0.5 mM ADP·BeF3 in buffer C (20 mM Hepes-NaOH pH 7.5, 250 mM KCl, 5 mM MgCl2, 1% glycerol), cross-linked with 3 mM BS3; nascent RNA threaded into the Rho ring; conditions: both partners purified
T3 construct: RNA polymerase β′ subunit, Thermus thermophilus; It stood in the assay as a subunit of the RNAP complex m2; source: E. coli Rosetta2 (DE3), coexpressed and purified as part of RNAP

[5] = target: T4, Thermus thermophilus RNA polymerase β subunit (Thermus thermophilus, UniProt Q8RQE9 1-1119); assay: as above; conditions: both partners purified
T4 construct: RNA polymerase β subunit, Thermus thermophilus; It stood in the assay as a subunit of the RNAP complex m2; source: E. coli Rosetta2 (DE3), coexpressed and purified as part of RNAP

Question: For `Nc1ncnc2c1ncn2[C@@H]1O[C@H](COP(=O)(O)OP(=O)(O)OP(=O)(O)O)[C@@H](O)[C@H]1O` [ATP], which “Rho-dependent RNA release from immobilised RNAP elongation complex, urea-PAGE” value (T. thermophilus Rho) is on record?
Answer: Its value is “The RNA release is ATP dependent, as it did not occur in either the absence”.

Question: Does B1 bind [1]?
Answer: Result: binds

Question: Does B2 bind [2]?
Answer: Result: binds

Question: And the “stoichiometry N” value [3]?
Answer: The value was 6.

Question: Does B2 bind [4]?
Answer: Result: binds

Question: Does B2 bind [5]?
Answer: Result: binds
